# Reference: PMC9771362
# Legend:
# [1] = biological target: Chaetomium thermophilum dynactin p150^Glued coiled-coil 1B, p150_(CC1B) (residues 478-680) (Chaetomium thermophilum); assay: SEC-MALS; complexes of IC fragments (IC_(1-88)/IC_(100-260); IC_(1-88)/p150_(CC1B)) and p150_(CC1B) alone; Superdex 200; conditions not given
# [2] = biological target: Chaetomium thermophilum dynactin p150^Glued coiled-coil 1B, p150_(CC1B) (residues 478-680) (Chaetomium thermophilum); assay: AUC; sedimentation equilibrium, dimer to monomers; three concentrations in the range 15-60 µM, 10,000, 14,000 and 18,000 rpm, 20°C; global fit to a monomer-dimer self-association model
# [3] = biological target: Chaetomium thermophilum dynactin p150^Glued coiled-coil 1B, p150_(CC1B) (residues 478-680) (Chaetomium thermophilum); assay: ITC; IC construct in the syringe (200-400 µM) titrated into p150_(CC1B) or NudECC in the cell (20-40 µM); 25°C; 50 mM sodium phosphate pH 7.5, 50 mM NaCl, 1 mM sodium azide; two-step model for p150_(CC1B), one-site model for NudECC
# [4] = biological target: Chaetomium thermophilum nuclear distribution protein NudE coiled-coil, NudECC (residues 1-190) (Chaetomium thermophilum); assay: AUC; sedimentation equilibrium, dimer to monomers; three concentrations in the range 15-60 µM, 10,000, 14,000 and 18,000 rpm, 20°C; global fit to a monomer-dimer self-association model
# [5] = biological target: Chaetomium thermophilum dynein intermediate chain IC_(100-260) (Chaetomium thermophilum); assay: SEC-MALS; complexes of IC fragments (IC_(1-88)/IC_(100-260); IC_(1-88)/p150_(CC1B)) and p150_(CC1B) alone; Superdex 200; conditions not given
# [6] = biological target: Chaetomium thermophilum nuclear distribution protein NudE coiled-coil, NudECC (residues 1-190) (Chaetomium thermophilum); assay: ITC; IC construct in the syringe (200-400 µM) titrated into p150_(CC1B) or NudECC in the cell (20-40 µM); 25°C; 50 mM sodium phosphate pH 7.5, 50 mM NaCl, 1 mM sodium azide; two-step model for p150_(CC1B), one-site model for NudECC
substance,measurement,setting,value
"Chaetomium thermophilum dynactin p150^Glued coiled-coil 1B, p150_(CC1B) (residues 478-680) (domain or fragment)",stoichiometry N,[1],2
same,Kd,[2],30 nM
same,stoichiometry N,[2],2
Chaetomium thermophilum dynein intermediate chain IC_(37-88) (domain or fragment),Kd,[3],20000 nM
"Chaetomium thermophilum nuclear distribution protein NudE coiled-coil, NudECC (residues 1-190) (domain or fragment)",Kd,[4],200 nM
same,stoichiometry N,[4],2
Chaetomium thermophilum dynein intermediate chain IC_(1-88) (domain or fragment),stoichiometry N (IC (1-88) chains per p150 (CC1B) dimer),[1],2
same,stoichiometry N,[5],1
same,N of each step (two-step binding model),[3],0.5
same,stoichiometry N,[3],1
same,Kd,[6],300 nM
same,stoichiometry N,[6],1
